Values belong to the binder of their own block, whether it stands above or below them.
Tests used:
[1] = biological target: T1, Formylglycinamide ribonucleotide amidotransferase (small PurL) from Thermotoga maritima (Thermotoga maritima, UniProt Q9X0X3 1-603); assay: crystal structure
T1 sequence: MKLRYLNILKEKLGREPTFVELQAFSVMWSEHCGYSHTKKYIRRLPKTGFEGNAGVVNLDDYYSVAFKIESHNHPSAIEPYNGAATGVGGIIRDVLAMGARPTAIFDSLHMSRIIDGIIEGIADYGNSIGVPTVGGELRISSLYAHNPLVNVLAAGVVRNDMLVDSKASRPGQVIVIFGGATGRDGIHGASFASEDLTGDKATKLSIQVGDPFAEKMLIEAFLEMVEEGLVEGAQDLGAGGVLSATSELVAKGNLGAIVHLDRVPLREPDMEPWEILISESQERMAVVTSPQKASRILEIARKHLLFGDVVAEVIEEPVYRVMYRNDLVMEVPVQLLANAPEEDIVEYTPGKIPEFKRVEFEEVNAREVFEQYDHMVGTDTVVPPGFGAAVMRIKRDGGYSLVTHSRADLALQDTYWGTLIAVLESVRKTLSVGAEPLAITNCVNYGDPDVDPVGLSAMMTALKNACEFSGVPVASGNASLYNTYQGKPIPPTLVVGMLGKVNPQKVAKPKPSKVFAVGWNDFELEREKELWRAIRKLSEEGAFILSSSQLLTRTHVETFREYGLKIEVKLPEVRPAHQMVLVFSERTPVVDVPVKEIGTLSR

crystal structure = biological target: the molecule itself; assay: crystal structure

stoichiometry N [1]: 2 TmPurS per TmPurL
B1: PurS from Thermotoga maritima (natural protein)
chain: MPLFKFAIDVQYRSNVRDPRGETIERVLREEKGLPVKKLRLGKSIHLEVEAENKEKAYEIVKKACEELLVNPVVEEYEVREL
stoichiometry N (crystal structure): 2

stoichiometry N [1]: 1 TmPurQ per TmPurL
B2: PurQ (glutaminase subunit of FGAR amidotransferase) from Thermotoga maritima (enzyme)
chain: MKPRACVVVYPGSNCDRDAYHALEINGFEPSYVGLDDKLDDYELIILPGGFSYGDYLRPGAVAAREKIAFEIAKAAERGKLIMGICNGFQILIEMGLLKGALLQNSSGKFICKWVDLIVENNDTPFTNAFEKGEKIRIPIAHGFGRYVKIDDVNVVLRYVKDVNGSDERIAGVLNESGNVFGLMPHPERAVEELIGGEDGKKVFQSILNYLKR
modifications: glutamyl thioester intermediate covalently linked to Cys86 (seen in the crystal structure)

Source: article PMC2646663 (Biochemistry, 2008)
